T1: Epstein-Barr virus latent membrane protein 2 (LMP2) peptide on HLA-A24 (human)
T1 peptide: SSCSSCPLSK

T2: Epstein-Barr virus latent membrane protein 2 (LMP2) peptide on HLA-A11 (human)
T2 peptide: SSCSSCPLSK


How the values were obtained:
[1] = biological target: T1, Epstein-Barr virus latent membrane …; experiment: killing
[2] = biological target: T2, Epstein-Barr virus latent membrane …; experiment: killing

| Binder | binding result [1] | binding result [2] |
| --- | --- | --- |
| TCR-NPC-A11-003 (TCR, V domains shown) Valpha: GIQVEQSPPDLILQEGANSTLRCNFSDSVNNLQWFHQNPWGQLINLFYIPSGTKQNGRLSATTVATERYSLLYISSSQTTDSGVYFCAVVNNNDMRFGAGTRLTVKP Vbeta: DTEVTQTPKHLVMGMTNKKSLKCEQHMGHRAMYWYKQKAKKPPELMFVYSYEKLSINESVPSRFSPECPNSSLLNLHLHALQPEDSALYLCASSPGRWYEQFFGPGTRLTVL | no recognition | recognises |
| TCR-NPC-A11-125 (TCR, V domains shown) Valpha: GIQVEQSPPDLILQEGANSTLRCNFSDSVNNLQWFHQNPWGQLINLFYIPSGTKQNGRLSATTVATERYSLLYISSSQTTDSGVYFCAVLNNNDMRFGAGTRLTVKP Vbeta: DTEVTQTPKHLVMGMTNKKSLKCEQHMGHRAMYWYKQKAKKPPELMFVYSYEKLSINESVPSRFSPECPNSSLLNLHLHALQPEDSALYLCASSQGRWYEAFFGQGTRLTVV | no recognition | recognises |

From patent US20220056101A1 (published 2022)
